# Results reported in US20250215108A1.
# B1: anti-human SIRPa antibody Kwar23 (Creative Biolabs) (antibody, from a related filing, V domains shown)
# VH: EVQLQQSGAELVKPGASVKLSCTASGFNIKDYYIHWVQQRTEQGLEWIGRIDPEDGETKYAPKFQDKATITADTSSNTAYLHLSSLTSEDTAVYYCARWGAYWGQGTLVTVSS
# VL: QIVLTQSPAIMSASPGEKVTLTCSASSSVSSSYLYWYQQKPGSSPKLWIYSTSNLASGVPARFSGSGSGTSYSLTISSMEAEDAASYFCHQWSSYPRTFGAGTKLELK
# How the values were obtained:
# [1] = biological target: SIRPγ on peripheral human CD3+ T cells (human) (UniProt Q9P1W8); assay: flow cytometry on human CD3+ T cells, antibody at 10 micrograms/ml
# [2] = biological target: SIRPa on human monocytes (human) (UniProt P78324); assay: flow cytometry on human monocytes v1/v1 (Fc receptors blocked), PE anti-human Fc; readout MFI
# [3] = biological target: SIRPγ on peripheral human CD3+ T cells (human) (UniProt Q9P1W8); assay: flow cytometry on peripheral human CD3+ T cells, 10 µg/ml; Exp 1 HV1
# [4] = biological target: recombinant hSIRPg-His (Sino Biologicals, reference 11828-H08H) (human) (UniProt Q9P1W8); assay: BLI (Blitz): SIRPg-His on Ni-NTA biosensor, antibody at 10 µg/ml or 20 µg/ml (Example 9); 120 s association, 120 s dissociation
# [5] = biological target: recombinant hSIRPa-His (Sino Biologicals, reference 11612-H08H) (human) (UniProt P78324); assay: ELISA, immobilized hSIRPa-His, anti-human IgG detection
# [6] = biological target: SIRPa on human monocytes (human) (UniProt P78324); assay: flow cytometry on human monocytes v1/v1 (Fc receptors blocked), PE anti-human Fc; readout % stained monocytes
# [7] = biological target: recombinant hSIRPb-His (Antibodies-online, reference ABIN3077231) (human) (UniProt Q5TFQ8); assay: BLI (Blitz): SIRPb-His on Ni-NTA biosensor, antibody at 20 µg/ml; 120 s association, 120 s dissociation
# [8] = biological target: SIRPγ on peripheral human CD3+ T cells (human) (UniProt Q9P1W8); assay: flow cytometry on peripheral human CD3+ T cells, 10 µg/ml; Exp 1 HV2
# [9] = biological target: recombinant hSIRPa-His (Sino Biologicals, reference 11612-H08H) (human) (UniProt P78324); assay: SPR (Biacore 3000); SIRPa-His immobilised on a CM5 chip (500 RU), antibody injected; 3 min association, 10 min dissociation
# Sequence of SIRPγ on peripheral human CD3+ T cells (human) (Q9P1W8 29-387): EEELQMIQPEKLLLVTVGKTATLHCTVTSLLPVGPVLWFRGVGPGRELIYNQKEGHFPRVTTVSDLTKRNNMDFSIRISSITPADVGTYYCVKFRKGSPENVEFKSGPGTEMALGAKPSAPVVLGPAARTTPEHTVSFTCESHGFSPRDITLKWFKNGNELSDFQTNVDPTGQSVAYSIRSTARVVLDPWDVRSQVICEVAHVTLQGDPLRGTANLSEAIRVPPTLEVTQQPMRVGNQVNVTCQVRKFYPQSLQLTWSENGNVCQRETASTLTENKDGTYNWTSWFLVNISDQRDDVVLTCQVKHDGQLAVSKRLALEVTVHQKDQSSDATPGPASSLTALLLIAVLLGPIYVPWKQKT
# Sequence of recombinant hSIRPb-His (Antibodies-online, reference ABIN3077231) (human) (Q5TFQ8 30-371): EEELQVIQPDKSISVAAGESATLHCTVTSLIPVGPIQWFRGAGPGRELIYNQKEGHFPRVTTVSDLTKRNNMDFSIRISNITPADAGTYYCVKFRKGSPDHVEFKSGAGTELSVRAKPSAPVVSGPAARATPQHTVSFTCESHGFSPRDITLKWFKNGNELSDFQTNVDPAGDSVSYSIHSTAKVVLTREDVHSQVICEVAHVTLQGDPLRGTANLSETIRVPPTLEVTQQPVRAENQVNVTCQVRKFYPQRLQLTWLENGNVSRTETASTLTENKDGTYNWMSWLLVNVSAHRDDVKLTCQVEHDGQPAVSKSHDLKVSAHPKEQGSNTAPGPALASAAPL
# Sequence of recombinant hSIRPg-His (Sino Biologicals, reference 11828-H08H) (human) (Q9P1W8 29-360): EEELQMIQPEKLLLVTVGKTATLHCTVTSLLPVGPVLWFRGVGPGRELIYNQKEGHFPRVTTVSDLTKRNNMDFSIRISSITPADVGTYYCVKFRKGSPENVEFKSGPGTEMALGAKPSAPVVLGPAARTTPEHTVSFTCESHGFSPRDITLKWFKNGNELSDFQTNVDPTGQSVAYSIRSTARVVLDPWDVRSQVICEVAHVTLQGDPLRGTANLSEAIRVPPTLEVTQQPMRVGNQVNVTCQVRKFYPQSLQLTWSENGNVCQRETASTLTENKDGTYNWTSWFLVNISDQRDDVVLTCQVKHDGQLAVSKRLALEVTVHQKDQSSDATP
binder,measurement,setting,value
B1,percent of T cells stained,[1],> 70%
same,EC50,[2],0.378 µg/mL
same,% of positive T-cells,[3],80%
same,Kd,[4],2.14 nM
same,EC50,[5],0.0033 µg/mL
same,EC50,[6],0.26 µg/mL
same,Kd,[7],2.77 nM
same,% of positive T-cells,[8],89.3%
same,Kd,[9],0.367 nM
